# Reference: publication PMC3700227
# Biological target: Cladosporium fulvum LysM effector Ecp6 (extracellular protein 6), produced in Pichia pastoris (Cladosporium fulvum) (UniProt B3VBK9)
# Assay: SEC
substance,measurement,value
"Cladosporium fulvum LysM effector Ecp6 (extracellular protein 6), produced in Pichia pastoris (from UniProt B3VBK9) (natural protein)",stoichiometry N,2
